# Target: GLP-2R
# Experiment: cell-based or functional assay
binder,measurement,value
GLP-2-hyFc9 fusion polypeptide (Fc fusion) HGDGSFSDEMNTILDNLAARDFINWLIQTKITDAKATTAPATTRNTGRGGEEKKKEKEKEEQEERETKTPECPSHTQPLGVFLFPPKPKDTLMISRTPEVTCVVVDVSQEDPEVQFNWYVDGVEVHNAKTKPREEQFNSTYRVVSVLTVLHQDWLNGKEYKCKVSNKGLPSSIEKTISKAKGQPREPQVYTLPPSQEEMTKNQVSLTCLVKGFYPSDIAVEWESNGQPENNYKTTPPVLDSDGSFFLYSRLTVDKSRWQEGNVFSCSVMHEALHNHYTQKSLSLSLGK,membrane depolarization induced by increased intracellular cAMP in GLP-2R-expressing 293 cells; activity relative to GLP-2-2G peptide set at 100%,98%
